Experimental data as given in article PMC3575853 (Nucleic Acids Research, 2013).
Values belong to the binder of their own block, whether it stands above or below them.

Experiments:
[1] = target: RPA-DBC (RPA70ABC/32D/14 DNA-binding core) (human, UniProt P27694;P15927;P35244 181-616;43-171;1-121); assay: SANS / gel filtration
[2] = target: RPA70 residues 181-616 (70ABC subunit of the human RPA DNA-binding core, RPA-DBC) (human, UniProt P27694 181-616); assay: SEC-MALS
Chain of RPA70 residues 181-616 (70ABC subunit of the human RPA DNA-binding core, RPA-DBC) (P27694 181-616): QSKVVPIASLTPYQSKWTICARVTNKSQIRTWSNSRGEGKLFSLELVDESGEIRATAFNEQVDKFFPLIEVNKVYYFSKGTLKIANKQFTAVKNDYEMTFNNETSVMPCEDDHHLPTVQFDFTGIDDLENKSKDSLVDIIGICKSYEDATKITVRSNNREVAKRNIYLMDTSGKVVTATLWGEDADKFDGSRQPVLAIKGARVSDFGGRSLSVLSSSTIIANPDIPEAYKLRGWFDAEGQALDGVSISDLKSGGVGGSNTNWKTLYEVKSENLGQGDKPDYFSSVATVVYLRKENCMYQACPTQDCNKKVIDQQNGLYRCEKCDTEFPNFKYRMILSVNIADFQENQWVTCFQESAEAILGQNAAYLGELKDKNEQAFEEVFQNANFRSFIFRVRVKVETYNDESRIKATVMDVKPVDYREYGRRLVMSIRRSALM

Chain of RPA-DBC (RPA70ABC/32D/14 DNA-binding core) (P27694 181-616, chain 1 of 2): as the sequence (P27694 181-616) above
Chain of RPA-DBC (RPA70ABC/32D/14 DNA-binding core) (P35244 whole entry, chain 3 of 2, the tested form may be a part): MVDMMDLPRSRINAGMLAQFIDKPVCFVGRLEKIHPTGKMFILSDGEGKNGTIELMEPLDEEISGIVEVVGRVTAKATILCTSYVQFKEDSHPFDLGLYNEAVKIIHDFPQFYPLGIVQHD

Binder: TTTTTTTTTTTTTTTTTTTTTTTTTTTTTT (ssDNA) [dT30]
binding result [1]: binds

binding result [2]: binds
B1: RPA32 residues 43-171 (32D subunit of the human RPA DNA-binding core, RPA-DBC) (domain or fragment)
chain: AQHIVPCTISQLLSATLVDEVFRIGNVEISQVTIVGIIRHAEKAPTNIVYKIDDMTAAPMDVRQWVDTDDTSSENTVVPPETYVKVAGHLRSFQNKKSLVAFKIMPLEDMNEFTTHILEVINAHMVLSK
